Assay: Near-infrared imaging of DIII-EphB4-EBD after conjugation with dye
Type: physicochemical
Conditions: after conjugation with near-infrared fluorescent dye, different concentrations, compared with Dye@DIII
Source text: After induction, the supernatant of the BMMY induced expression culture was collected and sequentially filtered through 0.8 µm, 0.45 µm, and 0.22 µm membranes. The filtrate was then purified using an Albupure affinity column. The purified product was subjected to SDS-PAGE and near-infrared imaging for identification. As shown in Fig. 19 (left), the final eluate contained a highly purified product (indicated by the red dashed box).

B1: DIII-EphB4-EBD: fusion protein of albumin DIII and EphB4 ephrin-binding domain (SEQ ID NO: 14), tested after conjugation with near-infrared fluorescent dye (conjugate)
chain: VEEPQNLIKQNCELFEQLGEYKFQNALLVRYTKKVPQVSTPTLVEVSRNLGKVGSKCCKHPEAKRMPCAEDYLSVVLNQLCVLHEKTPVSDRVTKCCTESLVNRRPCFSALEVDETYVPKEFNAETFTFHADICTLSEKERQIKKQTALVELVKHKPKATKEQLKAVMDDFFVEKCCKADDKETCFAEEGKKLVSQLGLGGGGSGGGGSEETLLNTKLETADLKWVTFPQVDGQWEELSGLDEEQHSVRTYEVCDVQRAPGQAHWLRTGWVPRRGAVHVYATLRFTMLECLSLPRAGRSCKETFTVFYYESDADTATALTPAWMENPYIKVDTVAAEHLTRKRPGAEATGKVNVKTLRLGPLSKAGFYLAFQDQGACMALLSLHLFYKKCAQLTV
modifications: near-infrared fluorescent dye conjugated
For B1, the fluorescence characteristics was “fluorescence characteristics consistent with those of the original DIII”.

From patent publication EP4803885A1, “PROBE AND USE THEREOF IN IMAGING AND THERAPY” (priority 2023, dated 2025)
